Biological target: T1, GlaR (YugA) (Lactococcus lactis IL1403) (UniProt Q7DAT6)
T1 sequence: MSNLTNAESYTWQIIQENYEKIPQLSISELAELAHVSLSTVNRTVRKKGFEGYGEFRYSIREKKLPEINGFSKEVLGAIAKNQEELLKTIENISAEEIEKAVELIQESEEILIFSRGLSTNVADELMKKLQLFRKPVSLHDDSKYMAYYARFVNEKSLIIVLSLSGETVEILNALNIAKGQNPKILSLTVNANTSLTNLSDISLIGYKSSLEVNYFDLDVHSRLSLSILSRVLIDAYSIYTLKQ
Test: EMSA
Conditions: EMSA: 1 nM DNA, 10 mM Tris-HCl pH 8.5, 10 mM MgCl2, 100 mM KCl, 0.1 mg/ml BSA (printed as 10x binding buffer), 250 mM galactose, 20 ul, 20 min at 37 C; 5% PAGE …

Sequence | binding
CCATTACATTTTCATGACGATTACATACAAAAAAAGCTCAAAAATTTGAGCTTTTTTTTTCGAATTTTAGATAATTAACTAGTAACCTTTTGGATGACTTTGGTGCCATTTCCAAGCGTTCGTAATAATGTGCTCTAAATCATTTTGTGCTTTCCAACCCAAAATTTCACCAGCTTTTGTTGAATCAGCAACCAGCTCATCTGGGTCTCCTGCACGGCGTTCACCCATTTGGCTTGGAATTTCTTTACCTGTTACTTTTCGTGCGGTTTCAAGCACTTCAAG (double strand) | no binding
GGACATTGGCATCTACTTGAAGAAGAAGCAGGAACATGGTTAAATATTGACGGATTCCATATGGGTGTAGGTGGAGATGATTCATGGAGTCCAAGTGTCGCTCAGGAATATTTATTGACAAAGGGAAATTATCATTATGAAGTTAGTTTTAAATTAACGTGATGATCCAAATTTTCAAGAATTTGATATAATATAGAGAAAATGGAGGTTCTTATGACGGTTTTAGTTCTTGGTGGAGCAGGATACGTGGGAAGTCACGCGGTAGATATGCTTCTTAAACGTGGTTACGATGTGGCAG (double strand) [galE upstream region] | no binding

From paper PMC6528599
